One assay relates to flg. Briefly: Saturation (equilibrium) binding of [125I]FGF to flg-overexpressing cells, Scatchard analysis. Further details: species or system human. The conditions noted are these: for binding of [125I]aFGF and [125I]bFGF at saturation to flg in presence of unlabelled ligand: 100 fold molar excess of unlabelled ligand. On the procedure: (§1) Bovine derived aFGF, purified as previously described (Burgess, et al., J. Biol. Chem., 260: 11389-11392 (1985)), human recombinant bFGF (a kind gift of Dr. Moscatelli) and human recombinant kFGF (a kind gift of Dr. Claudio Basilico) were radioiodinated using the protocol for Enzymobeads (BioRad). The specific activity of the radiolabelled ligand was determined by radioisotope dilution using the respective unlabelled competitsr. The concentrations of the unlabelled ligands were determined by amino acid analysis (Jaye, et al., 1987 supra). The specific activity of the different preparations of [^125 I]aFGF varied between 130,000-760,000 cpm/ng and the specific activity for [^125 I]bFGF between 50,000-500,000 cpm/ng. The specific activity of [^125 I]kFGF varied from 50,000-200,000 cpm/ng. The binding assay was performed as follows: Fibronectin-coated 24 well dishes containing 1×10^5 cells/well were placed on ice, and the wells were rinsed twice with cold binding buffer (DMEM, 1 mg/ml BSA, 5 U/ml heparin, 50 mM Hepes, pH 7.4). Dishes were incubated on ice with 1 ml of ice cold binding buffer for 20 minutes, followed by 2 hours at 4° C. with serial dilutions of the [^125 I]FGF in cold binding buffer without heparin. Nonspecific binding was obtained using the same serial dilutions but in the presence of 100 fold molar excess of non-radioactive aFGF. After incubation, the cells were placed on-ice and rinsed twice with ice cold binding buffer minus heparin and then solubilized in 0.3N NaOH 37° C., 15 minutes. When [^125 I]bFGF was used the cells were placed on ice after incubation, washed three times with PBS, twice with 1 ml 2M NaCl in 20 mM Hepes, pH 7.5 and twice with 1 ml 2M NaCl in 20 mM sodium acetate, pH 4.0. The radioactivity released by the acid 2M NaCl wash represents specific binding to high affinity sites (Moscatelli, J. Cell. Physiol., 131: 123-130 (1987)). Acidic and basic FGF were radioiodinated and purified on heparin-Sepharose as described above. The dissociation constants of bek and fiq for aFGF and bFGF were established by saturation binding analysis of the overexpressing cell lines with the iodinated ligands. Binding of both aFGF and bFGF to bek and flg was specific and saturable (FIG. 6A, inserts). […] Also kFGF binds to bek with similar affinity as does bFGF but binds to flg with 4-foldless avidity than does bFGF. The data from additional experiments yield apparent Kds of aFGF for flg in the range of 20-80 pM and for bek in the range of 40-100 pM. […] The range of values probably arises from determinations of the specific activity and biological integrity of different preparations of the iodinated ligands. […] These conclusions were supported by competition (isotope dilution) experiments in which increasing amounts of nonradioactive aFGF or bFGF competed for binding with [^125 I]aFGF and [^125 I]bFGF to flg- and bek-overexpressing cells.

The next assay relates to bek. Briefly: Saturation (equilibrium) binding of [125I]FGF to bek-overexpressing cells, Scatchard analysis. Further details: species or system human. The settings on record: for binding of [125I]aFGF and [125I]bFGF at saturation to bek in presence of unlabelled ligand: 100 fold molar excess of unlabelled ligand. The procedure: as §1
The mark [1] stands for this setting: data from additional experiments, read-out: apparent Kd for flg, range.
Setting [2] is: typical experiment, Scatchard analysis, flg-overexpressing NIH 3T3 cells (flg26), 4° C., read-out: affinity (dissociation constant) for flg.
[3] abbreviates: within any single experiment, compared to aFGF.
Where [4] appears, read: data from additional experiments, read-out: apparent Kd for bek, range.
Setting [5] is: typical experiment, Scatchard analysis, bek-overexpressing NIH 3T3 cells (bek8; bek13 for kFGF), 4° C., read-out: affinity (dissociation constant) for bek.

Where two headings read alike, the source gives them in different places.

Take “bFGF: human recombinant basic fibroblast growth factor, radioiodinated for binding”: in the assay on flg, the “binding of [125I]aFGF and [125I]bFGF at saturation to flg in presence of unlabelled ligand” value was “completely eliminated”. Also, the Kd is 50 to 150 pM in the assay on flg (setting [1]), 47 pM with flg (setting [2]), 80 to 150 pM in the assay on bek (setting [4]) and 82 pM with bek (setting [5]). In addition, the “fold lower affinity for flg compared to aFGF” value with flg (setting [3]) is reported as “approximately 2 fold”. The “binding of [125I]aFGF and [125I]bFGF at saturation to bek in presence of unlabelled ligand” value in the assay with bek was “completely eliminated”. Also, the “fold lower affinity for bek compared to aFGF” value with bek (setting [3]) is given as “approximately 2 fold”.

B1: kFGF: human recombinant kFGF, member of the FGF family, radioiodinated for binding (protein, UniProt P08620 31-206, looked up)
Fibroblast growth factor 4: APTAPNGTLEAELERRWESLVALSLARLPVAAQPKEAAVQSGAGDYLLGIKRLRRLYCNVGIGFHLQALPDGRIGGAHADTRDSLLELSPVERGVVSIFGVASRFFVAMSSKGKLYGSPFFTDECTFKEILLPNNYNAYESYKYPGMFIALSKNGKTKKGNRVSPTMKVTHFLPRL
modifications: radioiodinated
With B1, in the assay on flg (compared to bFGF), the “fold less avidity for flg than bFGF” value was found to be 4 fold. The Kd was found to be 320 pM in the assay on flg (setting [2]) and 80 pM in the assay on bek (setting [5]).

B2: aFGF: Bovine derived acidic fibroblast growth factor, purified, radioiodinated for binding (protein, UniProt P03968 16-155, looked up)
Fibroblast growth factor 1: FNLPLGNYKKPKLLYCSNGGYFLRILPDGTVDGTKDRSDQHIQLQLCAESIGEVYIKSTETGQFLAMDTDGLLYGSQTPNEECLFLERLEENHYNTYISKKHAEKHWFVGLKKNGRSKLGPRTHFGQKAILFLPLPVSSD
modifications: radioiodinated
Regarding B2, in the assay with flg, the “binding of [125I]aFGF and [125I]bFGF at saturation to flg in presence of unlabelled ligand” value is listed as “completely eliminated”. In addition, the Kd in the assay with flg (setting [1]) is 20 to 80 pM; in the assay with flg (setting [2]), 24 pM; in the assay with bek (setting [4]), 40 to 100 pM; in the assay with bek (setting [5]), 47 pM. The “binding of [125I]aFGF and [125I]bFGF at saturation to bek in presence of unlabelled ligand” value in the assay on bek is listed as “completely eliminated”.

(Values after patent publication US5863888A, “Human Bek Fibroblast growth factor receptor” (Rhone-Poulenc Rorer Pharmaceuticals Inc., priority 1995, dated 1999).)
